Here are results for one substance from US20140011732A1.

For this experiment, the target named is human serum albumin (HSA) (human) (UniProt P02768). Nature of the experiment: competition SPA on biotinylated HSA, 125I acylated GLP-1 tracer.

As a reminder, the EC50 is the concentration at which the effect is half-maximal.

Chain of N-epsilon37-[2-(2-[2-(2-[2-(2-((R)-3-[1-(17-Carboxyheptadecanoyl)piperidin-4-ylcarbonylamino]3-carboxypropionylamino)ethoxy)ethoxy]acetylamino)ethoxy]ethoxy)acetyl][DesaminoHis7, Glu22 Arg26, Arg 34, (peptide): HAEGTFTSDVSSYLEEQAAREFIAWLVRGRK

Take “N-epsilon37-[2-(2-[2-(2-[2-(2-((R)-3-[1-(17-Carboxyheptadecanoyl)piperidin-4-ylcarbonylamino]3-carboxypropionylamino)ethoxy)ethoxy]acetylamino)ethoxy]ethoxy)acetyl][DesaminoHis7, Glu22 Arg26, Arg 34, Phe(m-CF3)28]GLP-1-(7-37)amide (peptide)”: the EC50 was 800 nM.
